Test results published in article PMC11546159.

Target: HLA-A*02:01 on the surface of T2 cells
Test: FACS, anti-HLA antibody staining of peptide-pulsed T2 cells (% HLA-A*02+)
Settings: peptide 50 μM
[1] = parent: est. 77, read off a plot

Substance	response (parent: 79) [%]	response [1] [%]
HPV16 E6 29-38 peptide C9A	60	58
HPV16 E6 29-38 peptide D4A	1.9	
HPV16 E6 29-38 peptide E8A	74	76
HPV16 E6 29-38 peptide H3A	84	81
HPV16 E6 29-38 peptide I2A	2	
HPV16 E6 29-38 peptide I5A	33	34
HPV16 E6 29-38 peptide I6A	71	69
HPV16 E6 29-38 peptide L7A	2.4	
HPV16 E6 29-38 peptide T1A	79	79
HPV16 E6 29-38 peptide V10A	2	
